Laboratory results from US20200024322A1 (Eli Lilly, published 2020).
Changes are numbered by the printed parent chain. Numbered stars: 1 amine (or outer) side, 2 acyl side, 3 side chain; on linkers, the order of the positions; unused ones are H or OH. Square brackets hold non-standard residues; d marks the D form. Side chains are listed from the residue outwards. Ends that are not written are not given here. * marks the point of attachment. C20 diacid = O=C(O)CCCCCCCCCCCCCCCCCCC(=O)*; γGlu = O=C(O)[C@H](CCC(=O)[*:2])N[*:1]; AEEA = NCCOCCOCC(=O)O; Aib = CC(C)(N)C(=O)O

How the values were obtained:
human GIP receptor = biological target: T1, human GIP receptor (human, UniProt P48546 22-466); experiment: [125I]-GIP competition SPA, hGIPR membranes
T1 construct: whole, on cells; also called hGIPR; hGIP-R
T1 sequence (looked up): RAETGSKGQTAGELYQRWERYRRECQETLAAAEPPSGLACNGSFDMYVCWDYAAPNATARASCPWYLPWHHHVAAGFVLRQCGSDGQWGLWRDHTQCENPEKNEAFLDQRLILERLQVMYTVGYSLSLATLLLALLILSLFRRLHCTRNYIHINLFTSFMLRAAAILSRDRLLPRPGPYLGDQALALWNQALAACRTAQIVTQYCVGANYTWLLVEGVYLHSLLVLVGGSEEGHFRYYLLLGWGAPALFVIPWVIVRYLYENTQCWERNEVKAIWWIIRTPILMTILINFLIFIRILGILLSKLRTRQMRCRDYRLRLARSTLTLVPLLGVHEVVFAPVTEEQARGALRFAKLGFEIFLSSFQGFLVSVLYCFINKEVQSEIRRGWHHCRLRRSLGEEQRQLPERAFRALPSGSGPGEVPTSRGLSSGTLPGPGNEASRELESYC
Protocol: The binding buffer contains 25 mM HEPES, pH 7.4, 2.5 mM CaCl₂, 1 mM MgCl₂, 0.1% (w/v) bacitracin, 0.003% (w/v) TWEEN®-20, and Roche Complete™ Protease Inhibitors without EDTA. […] Plates are sealed and mixed on a plate shaker (setting 6) for 1 minute and read with a PerkinElmer Trilux MicroBeta® scintillation counter after 2.5 to 12 hours of incubation/settling time at room temperature.
(§1) Data are analyzed using four-parameter (curve maximum, curve minimum, IC₅₀, Hill slope) nonlinear regression routines (Genedata Screener, version 12.0.4, Genedata AG, Basal, Switzerland). […] Values for Kᵢ are reported as the geometric mean, with error expressed as the standard error of the mean (SEM) and n is equal to the number of independent replicates (determined in assays performed on different days). Geometric Means are calculated as follows: […]

human glucagon receptor = biological target: T2, human glucagon receptor (human, UniProt P47871 26-477); experiment: [125I]-Gcg competition SPA, hGcgR membranes
T2 construct: whole, on cells; also called hGcgR; GcgR

human GLP-1 receptor = biological target: T3, human GLP-1 receptor (human, UniProt P43220 24-463); experiment: [125I]-GLP-1 competition SPA, hGLP-1R membranes
T3 construct: whole, on cells; also called hGLP-1R; hGLP1R
Protocol: The binding buffer contains 25 mM HEPES, pH 7.4, 2.5 mM CaCl₂, 1 mM MgCl₂, 0.1% (w/v) bacitracin, 0.003% (w/v) TWEEN®-20, and Roche Complete™ Protease Inhibitors without EDTA.
as §1

T2 sequence (P47871 26-477): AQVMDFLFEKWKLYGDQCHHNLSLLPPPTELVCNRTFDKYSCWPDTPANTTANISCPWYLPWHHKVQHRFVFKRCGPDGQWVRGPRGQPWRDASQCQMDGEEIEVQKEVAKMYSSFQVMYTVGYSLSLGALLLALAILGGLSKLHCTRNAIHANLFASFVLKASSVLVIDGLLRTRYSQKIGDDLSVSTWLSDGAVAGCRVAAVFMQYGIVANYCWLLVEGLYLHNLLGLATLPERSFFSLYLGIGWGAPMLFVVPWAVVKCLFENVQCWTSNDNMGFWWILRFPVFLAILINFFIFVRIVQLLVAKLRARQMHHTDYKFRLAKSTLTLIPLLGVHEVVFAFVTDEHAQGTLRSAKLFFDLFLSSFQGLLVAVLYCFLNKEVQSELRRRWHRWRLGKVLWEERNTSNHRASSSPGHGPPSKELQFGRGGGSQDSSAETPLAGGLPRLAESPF

B1: Example 315 (peptide)
peptide: YXEGTFTSDYSILLDKKAQXAFIEYLIEGGPSSGAPPPS
modifications: Aib2; K17((2-[2-(2-Amino-ethoxy)-ethoxy]-acetyl)2-(γ-Glu)-CO-(CH2)16-CO2H); Aib20; C-terminal NH2
Ki (human GIP receptor): 0.0677 nM | Ki (human glucagon receptor): 539 nM

B2: Example 352 (peptide)
peptide: B1 peptide with Y1X, L13X, E24X, E28A
modifications: D-Tyr1; Aib2; αMeL13; K17((2-[2-(2-Amino-ethoxy)-ethoxy]-acetyl)2-(γ-Glu)-CO-(CH2)18-CO2H); Aib20; D-Glu24; C-terminal NH2
Ki (human GIP receptor): 0.0726 nM | Ki (human GLP-1 receptor): 3.03 nM

B3: Example 319 (peptide)
peptide: Y[Aib]EGTFTSDYSILLDKK([AEEA-AEEA-γGlu-C20 diacid])AQ[Aib]EFIEYLIAGGPSSGAPPPS-NH2
modifications: N-terminus assumed
SMILES: CC[C@H](C)[C@H](NC(=O)[C@H](CC(C)C)NC(=O)[C@H](Cc1ccc(O)cc1)NC(=O)[C@H](CCC(=O)O)NC(=O)[C@@H](NC(=O)[C@H](Cc1ccccc1)NC(=O)[C@H](CCC(=O)O)NC(=O)C(C)(C)NC(=O)[C@H](CCC(N)=O)NC(=O)[C@H](C)NC(=O)[C@H](CCCCNC(=O)COCCOCCNC(=O)COCCOCCNC(=O)CC[C@H](NC(=O)CCCCCCCCCCCCCCCCCCC(=O)O)C(=O)O)NC(=O)[C@H](CCCCN)NC(=O)[C@H](CC(=O)O)NC(=O)[C@H](CC(C)C)NC(=O)[C@H](CC(C)C)NC(=O)[C@@H](NC(=O)[C@H](CO)NC(=O)[C@H](Cc1ccc(O)cc1)NC(=O)[C@H](CC(=O)O)NC(=O)[C@H](CO)NC(=O)[C@@H](NC(=O)[C@H](Cc1ccccc1)NC(=O)[C@@H](NC(=O)CNC(=O)[C@H](CCC(=O)O)NC(=O)C(C)(C)NC(=O)[C@@H](N)Cc1ccc(O)cc1)[C@@H](C)O)[C@@H](C)O)[C@@H](C)CC)[C@@H](C)CC)C(=O)N[C@@H](C)C(=O)NCC(=O)NCC(=O)N1CCC[C@H]1C(=O)N[C@@H](CO)C(=O)N[C@@H](CO)C(=O)NCC(=O)N[C@@H](C)C(=O)N1CCC[C@H]1C(=O)N1CCC[C@H]1C(=O)N1CCC[C@H]1C(=O)N[C@@H](CO)C(N)=O
Ki (human GIP receptor): 0.0349 nM | Ki (human GLP-1 receptor): 3.61 nM

B4: Example 356 (peptide)
peptide: B1 peptide with Y1X, L13X, E24X
modifications: D-Tyr1; Aib2; αMeL13; K17((2-[2-(2-Amino-ethoxy)-ethoxy]-acetyl)2-(γ-Glu)-CO-(CH2)18-CO2H); Aib20; D-Glu24; C-terminal NH2
Ki (human GIP receptor): 0.35 nM | Ki (human GLP-1 receptor): 10.3 nM

B5: Example 291 (peptide)
peptide: XXEGTFTSDYSIXLDXKAQXAFIXYLIAGGPSSGAPPPS
modifications: D-Tyr1; Aib2; αMeL13; Orn16; K17((2-[2-(2-Amino-ethoxy)-ethoxy]-acetyl)2-(γ-Glu)-CO-(CH2)18-CO2H); Aib20; D-Glu24; C-terminal NH2
Ki (human GIP receptor): 0.129 nM | Ki (human GLP-1 receptor): 3.16 nM

B6: Example 362 (peptide)
peptide: B5 peptide with I23V
modifications: D-Tyr1; Aib2; αMeL13; Orn16; K17((2-[2-(2-Amino-ethoxy)-ethoxy]-acetyl)2-(γ-Glu)-CO-(CH2)18-CO2H); Aib20; D-Glu24; C-terminal NH2
Ki (human GIP receptor): 0.337 nM | Ki (human GLP-1 receptor): 6.95 nM

B7: Example 357 (peptide)
peptide: B5 peptide with A28E
modifications: D-Tyr1; Aib2; αMeL13; Orn16; K17((2-[2-(2-Amino-ethoxy)-ethoxy]-acetyl)2-(γ-Glu)-CO-(CH2)18-CO2H); Aib20; D-Glu24; C-terminal NH2
Ki (human GIP receptor): 0.316 nM | Ki (human GLP-1 receptor): 7.02 nM

B8: Example 364 (peptide)
peptide: B5 peptide with I23V
modifications: not fully specified; D-Tyr1; Aib2; αMeL13; Orn16; K17((2-[2-(2-Amino-ethoxy)-ethoxy]-acetyl)2-(γ-Glu)-CO-(CH2)16-CO2H); Aib20; D-Glu24; C-terminal NH2
Ki (human GIP receptor): 0.672 nM | Ki (human GLP-1 receptor): 17.2 nM

B9: Example 349 (peptide)
peptide: B5 peptide with A21E, X24E
modifications: D-Tyr1; Aib2; αMeL13; Orn16; K17((2-[2-(2-Amino-ethoxy)-ethoxy]-acetyl)2-(γ-Glu)-CO-(CH2)18-CO2H); Aib20; C-terminal NH2
Ki (human GIP receptor): 0.08 nM | Ki (human GLP-1 receptor): 1.72 nM

B10: Example 359 (peptide)
peptide: B5 peptide with A21E, I23V, X24E
modifications: D-Tyr1; Aib2; αMeL13; Orn16; K17((2-[2-(2-Amino-ethoxy)-ethoxy]-acetyl)2-(γ-Glu)-CO-(CH2)18-CO2H); Aib20; C-terminal NH2
Ki (human GIP receptor): 0.0874 nM | Ki (human GLP-1 receptor): 2.59 nM

B11: Example 354 (peptide)
peptide: B5 peptide with A21E
modifications: D-Tyr1; Aib2; αMeL13; Orn16; K17((2-[2-(2-Amino-ethoxy)-ethoxy]-acetyl)2-(γ-Glu)-CO-(CH2)18-CO2H); Aib20; D-Glu24; C-terminal NH2
Ki (human GIP receptor): 0.175 nM | Ki (human GLP-1 receptor): 7.85 nM

B12: Example 304 (peptide)
peptide: YXEGTFTSDYSIXLDKKAQXEFIEYLIEGGPSSG
modifications: Aib2; αMeL13; K17((2-[2-(2-Amino-ethoxy)-ethoxy]-acetyl)2-(γ-Glu)-CO-(CH2)16-CO2H); Aib20; C-terminal NH2
Ki (human GIP receptor): 0.0499 nM | Ki (human GLP-1 receptor): 4.44 nM

B13: Example 306 (peptide)
peptide: B12 peptide with E28A
modifications: Aib2; αMeL13; K17((2-[2-(2-Amino-ethoxy)-ethoxy]-acetyl)2-(γ-Glu)-CO-(CH2)16-CO2H); Aib20; C-terminal NH2
Ki (human GIP receptor): 0.0349 nM | Ki (human GLP-1 receptor): 2.86 nM
